# In US20240209104A1 (SHANGHAI ACEMAB, published 2024):
# Substitutions are numbered along the chain they refer to.
# T1: hOX40-EC-His (human, UniProt P43489 29-214)
# T1 construct: extracellular domain; bought protein; also called recombinant human OX40 antigen protein; human OX40 extracellular segment antigen; not shown: 6 His label
# T1 sequence (looked up): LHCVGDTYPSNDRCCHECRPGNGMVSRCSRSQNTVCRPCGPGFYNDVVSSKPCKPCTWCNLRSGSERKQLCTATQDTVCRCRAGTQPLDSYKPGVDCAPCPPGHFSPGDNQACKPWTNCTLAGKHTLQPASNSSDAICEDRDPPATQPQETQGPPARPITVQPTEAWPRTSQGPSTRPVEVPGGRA
# T2: OX40 on OX40 over-expressed cells (UniProt P43489 29-277)
# T2 construct: whole, on cells; human implied; also called OX40 expressed on the surface of OX40 expressing cell
# T2 sequence (looked up): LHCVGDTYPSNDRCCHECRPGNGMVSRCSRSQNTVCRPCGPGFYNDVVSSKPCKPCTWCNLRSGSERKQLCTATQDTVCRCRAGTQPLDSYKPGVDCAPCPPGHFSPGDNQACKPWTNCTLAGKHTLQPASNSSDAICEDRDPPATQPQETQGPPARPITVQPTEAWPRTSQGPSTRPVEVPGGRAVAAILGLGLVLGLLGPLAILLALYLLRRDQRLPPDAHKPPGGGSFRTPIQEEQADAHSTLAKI
# B1: 24B9-10 (antibody, V domains shown)
# VH: QVQLQESGPGLVKPSGTLSLTCAVSGGSISSSNWWTWVRQPPGKGLEWIGEIYHSGSTNYNPSLKSRVTISVDKSKNQFSLKLSSVTAADTAVYYCARTGPIVTTEYWGQGTLVTVSS
# VL: EIVLTQSPGTLSLSPGERATLSCRASQSVSSGYLAWYQQKPGQAPRLLIYGASIRATGIPDRFSGSGSGTDFTLTISRLEPEDFALYYCQQYGSSPLTFGGGTKVEIKR
# notes: hybridoma antibody, tested as culture supernatant
# B2: 30B1-3 (antibody, V domains shown)
# VH: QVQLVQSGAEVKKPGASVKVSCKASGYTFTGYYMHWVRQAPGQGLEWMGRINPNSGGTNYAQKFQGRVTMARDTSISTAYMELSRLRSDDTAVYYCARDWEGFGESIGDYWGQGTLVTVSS
# VL: B1 VL with L21F, S31G, G32S, Y50H, I54S, L86V, Q90L
# notes: as for B1
# B3: 23D1-8 (antibody, V domains shown)
# VH: QVQLVQSGAEVKKPGASVKVSCKASGYTFTGYYIHWVRQAPGQGLEWMGRINPNSGGTDFAQKFQARVTMTRDTAINIVYMELSRLRSDDTAVYYCARVVVASYYFDNWGQGTLVTVSS
# VL: not shown
# notes: as for B1
# B4: 38D9-12 (antibody, V domains shown)
# VH: QVQLQESGPGLVKPSGTLSLTCAVSGDSISSTNWWSWVRQPPGKGLEWIGEINHNGSTYYNPSLKSRVTISVDKSKNQFSLKLRSVTAADTAVYYCAREDYYYMDVWGKGTTVTVSS
# VL: DIQMTQSPSSLSASVGDRVTITCRTSQGIWNDLGWYQQKPGKAPKRLIYAASSLQSGVPSRFSGSESGTEFTLTISSLQPEDFATYYCLQYNNYPLTFGGGTKVEIKR
# notes: as for B1
# B5: 55H6-6 (antibody, V domains shown)
# VH: QVQLVQSGAEVKKPGASVKVSCKASGYTFTSYGISWVRQAPGQGLEWMGWISAYNGHTNYAQKLQGRVTMTTDTSTNTAYMELWSLRSDDTAVYYCTSDYGDYWGQGTLVTVSS
# VL: DVVVTQSPLSLPVTLGQPASISCRSSQSLVYSDGNTNLYWFQQRPGQSPRRLIYQVSNRDSGVPDRFSGSGSGTDFTLKISRVEAEDVGVYYCMQGTHWPPALTFGGGTEVEIKR
# notes: as for B1
# B6: 14D3-7-3 (antibody, V domains shown)
# VH: EVQLVESGGGLVKPGGSLRLSCAASGFTFSNAWMSWVRQAPGKGLEWVGRIKRKTDGGTTDYATPVKGRFTISRDASKNTLYLQMNSLKTEDTAVYYCTSAARRGYFDIWGRGTLVTVSS
# VL: B1 VL with G32R, I54N, I59M, L86M, L97I, G101Q, K104R, V105L
# notes: as for B1
# B7: 23C4-1-5 (antibody, V domains shown)
# VH: QVQLQESGPGLVKPSGTLSLTCAVSGGSISSSNWWSWVRQPPGKGLEWIGEIYHSGSTTYNPSLKSRVTISVDKSKSQISLKLTSVTAADTAVYYCARGDVLLWFGGRGTLVTVSS
# VL: B1 VL with T20S, G32N, A44T, T75I, L86V, G93S, L97I, G101Q, K104R, V105L
# notes: as for B1
# B8: 1F10-12-3 (antibody, V domains shown)
# VH: QVQLQESGPGLVKPSGTLSLTCAVSGGSISNSNWWNWVRQPPGRGLEWIGEIYHSGSTNYNPSLKSRVTISVDKSKNQFSLKLTSVTAADTAVYYCARYSTPFFDYWGQGNLVTVSS
# VL: DIQMTQSPSSLSASVGDRVTITCRASQSISNYLNWYQQKQGKAPKLLIYGASSLQSGVPSRFSGSGSGTDFTLTINSLQPEDFATYCCQQSYNNPLTFGGGTKVEIKR
# notes: as for B1
# B9: 20G6-7-1 (antibody, V domains shown)
# VH: QVQLQESGPGLVKPSGTLSLTCAVSGGSISSSNWWSWVRQPPGKGLEWIGEIYHSGNTNYNPSLKSRVTISVDKSKNQFSLKLSSVTAADTAVYYCARGGTTFDYWGQGTLVTVSS
# VL: EIVLMQYPGTLSLSSGERATLSCRASQSVSSRYLAWYQQKPGQAPRLLIYGASNRASGMPDRFSGSGSGTEFTLTISSLEPEDFAMYYCQQYGSSPITFGQGTRVEIKR
# notes: as for B1
# B10: 16E4-10-5 (antibody, V domains shown)
# VH: B7 VH with A23D, T59N, S77N, I79V, T84N, V101I, R108Q
# VL: B9 VL with M5T, Y7S, S15P, S57T, E71D, S78R, M86V, V105L
# notes: as for B1
# Molecular target: T1, hOX40-EC-His
# Assay: ELISA, supernatant stoste, coated OX40 (CK60)
row,450 nm light absorption [OD450],Binder
1,2.19,B1
2,2.31,B2
3,2.48,B3
4,2.24,B4
5,2.43,B5

# Molecular target: T1, hOX40-EC-His
# Assay: ELISA, supernatant 1:100, coated hOX40-EC-His
row,IgG ELISA (1:100) [OD650],Binder
1,2.2,B6
2,2.4,B7
3,0.2,B1
4,2,B2
5,2.4,B3
6,2.4,B4
7,0.1,B5
8,2.3,B8

# Molecular target: T1, hOX40-EC-His
# Assay: ELISA, supernatant diluted 50 times, coated OX40 (CK60)
row,450 nm light absorption [OD450],Binder
1,2.01,B6
2,2.21,B9
3,2.53,B10
4,2.63,B7
5,2.17,B8

# Molecular target: T1, hOX40-EC-His
# Assay: ELISA, supernatant diluted 100 times, coated OX40 (CK60)
row,450 nm light absorption [OD450],Binder
1,0.574,B1
2,1.89,B2
3,2.02,B3
4,2.1,B4
5,1.9,B5

# Molecular target: T2, OX40 on OX40 over-expressed cells
# Assay: flow cytometry, supernatant on OX40 over-expressed cells
# Procedure: After collecting OX40 over-expressed cells by 200G centrifugation, wash them with PBS containing 3% FCS, and then resuspend them in 2.5 ml of PBS containing 3% FCS. […] Finally, the cells were resuspended in […] of PBS containing 3% FCS for detection by flow cytometry.
row,Y586 channel PE fluorescence value,Binder
1,274000,B6
2,352000,B9
3,377000,B10
4,63900,B7
5,313000,B1
6,208000,B2
7,166000,B3
8,243000,B4
9,479000,B5
10,170000,B8
